Experimental data published in US20220089722A1 (NANTONG YICHEN BIOPHARMA, published 2022).

B1: IgFD-28(anti-CD3/EGFR) (bispecific antibody, human IgG1, kappa)
chain 1: EVQLVESGGGLVQPGGSLRLSCAASGFTFNTYAMNWVRQAPGKGLEWVARIRSKYNNYATYYADSVKDRFTISRDDSKNTLYLQMNSLRAEDTAVYYCVRHGNFGNSYVSWFAYWGQGTLVTVSSASTKGPSVFPLAPSSKSTSGGTAALGCLVKDYFPEPVTVSWNSGALTSGVHTFPAVLQSSGLYSLSSVVTVPSSSLGTQTYICNVNHKPSNTKVDKKVEPKSCDKTHTCPPCPAPPVAGPSVFLFPPKPKDTLMISRTPEVTCVVVDVSHEDPEVKFNWYVDGVEVHNAKTKPREEQYNSTYRVVSVLTVLHQDWLNGKEYKCKVSNKGLPSSIEKTISKAKGQPREPQVYTLPPCRDELTKNQVSLWCLVKGFYPSDIAVEWESNGQPENNYKTTPPVLDSDGSFFLYSKLTVDKSRWQQGNVFSCSVMHEALHNHYTQKSLSLSPGK
chain 2: QAVVTQEPSLTVSPGGTVTLTCRSSTGAVTTSNYANWVQQKPDHLFRGLIGGTNKRAPGTPARFSGSLLGDKAALTISGAQPEDEAEYYCALWYSNLWVFGGGTKLEIKRTVAAPSVFIFPPSDEQLKSGTASVVCLLNNFYPREAKVQWKVDNALQSGNSQESVTEQDSKDSTYSLSSTLTLSKADYEKHKVYACEVTHQGLSSPVTKSFNRGECDKTHTCPPCPAPPVAGPSVFLFPPKPKDTLMISRTPEVTCVVVDVSHEDPEVKFNWYVDGVEVHNAKTKPREEQYNSTYRVVSVLTVLHQDWLNGKEYKCKVSNKGLPSSIEKTISKAKGQPREPQVCTLPPSRDELTKNQVSLSCAVKGFYPSDIAVEWESNGQPENNYKTTPPVLDSDGSFFLVSKLTVDKSRWQQGNVFSCSVMHEALHNHYTQKSLSLSPGKGGSGGSGGGGSGGGGSDIQMTQSPSSLSASVGDRVTITCQASQDISNYLNWYQQKPGKAPKLLIYDASNLETGVPSRFSGSGSGTDFTFTISSLQPEDIATYFCQHFDHLPLAFGGGTKVEIKGGGGSGGGGSGGGGSQVQLQESGPGLVKPSETLSLTCTVSGGSVSSGDYYWTWIRQSPGKGLEWIGHIYYSGNTNYNPSLKSRLTISIDTSKTQFSLKLSSVTAADTAIYYCVRDRVTGAFDIWGQGTMVTVSS
notes: also called IgFD-28(ProA); IgFD-28(CH1)
B2: IgFD-29(anti-CD3/EGFR) (bispecific antibody, human IgG1, kappa)
chain 1: EVQLVESGGGLVQPGGSLRLSCAASGFTFNTYAMNWVRQAPGKGLEWVARIRSKYNNYATYYADSVKDRFTISRDDSKNTLYLQMNSLRAEDTAVYYCVRHGNFGNSYVSWFAYWGQGTLVTVSSASTKGPSVFPLAPSSKSTSGGTAALGCLVKDYFPEPVTVSWNSGALTSGVHTFPAVLQSSGLYSLSSVVTVPSSSLGTQTYICNVNHKPSNTKVDKKVEPKSCDKTHTCPPCPAPPVAGPSVFLFPPKPKDTLMISRTPEVTCVVVDVSHEDPEVKFNWYVDGVEVHNAKTKPREEQYNSTYRVVSVLTVLHQDWLNGKEYKCKVSNKGLPSSIEKTISKAKGQPREPQVYTLPPCRDELTKNQVSLWCLVKGFYPSDIAVEWESNGQPENNYKTTPPVLDSDGSFFLYSKLTVDKSRWQQGNVFSCSVMHEALHNHYTQKSLSLSPGKGGSGGSGGGGSGGGGSQVQLQESGPGLVKPSETLSLTCTVSGGSVSSGDYYWTWIRQSPGKGLEWIGHIYYSGNTNYNPSLKSRLTISIDTSKTQFSLKLSSVTAADTAIYYCVRDRVTGAFDIWGQGTMVTVSS
chain 2: QAVVTQEPSLTVSPGGTVTLTCRSSTGAVTTSNYANWVQQKPDHLFRGLIGGTNKRAPGTPARFSGSLLGDKAALTISGAQPEDEAEYYCALWYSNLWVFGGGTKLTVLKRTVAAPSVFIFPPSDEQLKSGTASVVCLLNNFYPREAKVQWKVDNALQSGNSQESVTEQDSKDSTYSLSSTLTLSKADYEKHKVYACEVTHQGLSSPVTKSFNRGECDKTHTCPPCPAPPVAGPSVFLFPPKPKDTLMISRTPEVTCVVVDVSHEDPEVKFNWYVDGVEVHNAKTKPREEQYNSTYRVVSVLTVLHQDWLNGKEYKCKVSNKGLPSSIEKTISKAKGQPREPQVCTLPPSRDELTKNQVSLSCAVKGFYPSDIAVEWESNGQPENNYKTTPPVLDSDGSFFLVSKLTVDKSRWQQGNVFSCSVMHEALHNHYTQKSLSLSPGKGGSGGSGGGGSGGGGSDIQMTQSPSSLSASVGDRVTITCQASQDISNYLNWYQQKPGKAPKLLIYDASNLETGVPSRFSGSGSGTDFTFTISSLQPEDIATYFCQHFDHLPLAFGGGTKVEIK
notes: (ProA)/(CH1) = purification resin; also called IgFD-29(ProA); IgFD-29(CH1)
B3: IgFD-33(anti-CD3/EGFR) (bispecific antibody, human IgG1, kappa)
chain 1: QVQLQESGPGLVKPSETLSLTCTVSGGSVSSGDYYWTWIRQSPGKGLEWIGHIYYSGNTNYNPSLKSRLTISIDTSKTQFSLKLSSVTAADTAIYYCVRDRVTGAFDIWGQGTMVTVSSASTKGPEVQLVESGGGLVQPGGSLRLSCAASGFTFNTYAMNWVRQAPGKGLEWVARIRSKYNNYATYYADSVKDRFTISRDDSKNTLYLQMNSLRAEDTAVYYCVRHGNFGNSYVSWFAYWGQGTLVTVSSASTKGPSVFPLAPSSKSTSGGTAALGCLVKDYFPEPVTVSWNSGALTSGVHTFPAVLQSSGLYSLSSVVTVPSSSLGTQTYICNVNHKPSNTKVDKKVEPKSCDKTHTCPPCPAPPVAGPSVFLFPPKPKDTLMISRTPEVTCVVVDVSHEDPEVKFNWYVDGVEVHNAKTKPREEQYNSTYRVVSVLTVLHQDWLNGKEYKCKVSNKGLPSSIEKTISKAKGQPREPQVYTLPPCRDELTKNQVSLWCLVKGFYPSDIAVEWESNGQPENNYKTTPPVLDSDGSFFLYSKLTVDKSRWQQGNVFSCSVMHEALHNHYTQKSLSLSPGK
chain 2: DIQMTQSPSSLSASVGDRVTITCQASQDISNYLNWYQQKPGKAPKLLIYDASNLETGVPSRFSGSGSGTDFTFTISSLQPEDIATYFCQHFDHLPLAFGGGTKVEIKTVAAPSVFIFPPQAVVTQEPSLTVSPGGTVTLTCRSSTGAVTTSNYANWVQQKPDHLFRGLIGGTNKRAPGTPARFSGSLLGDKAALTISGAQPEDEAEYYCALWYSNLWVFGGGTKLTVLKRTVAAPSVFIFPPSDEQLKSGTASVVCLLNNFYPREAKVQWKVDNALQSGNSQESVTEQDSKDSTYSLSSTLTLSKADYEKHKVYACEVTHQGLSSPVTKSFNRGECDKTHTCPPCPAPPVAGPSVFLFPPKPKDTLMISRTPEVTCVVVDVSHEDPEVKFNWYVDGVEVHNAKTKPREEQYNSTYRVVSVLTVLHQDWLNGKEYKCKVSNKGLPSSIEKTISKAKGQPREPQVCTLPPSRDELTKNQVSLSCAVKGFYPSDIAVEWESNGQPENNYKTTPPVLDSDGSFFLVSKLTVDKSRWQQGNVFSCSVMHEALHNHYTQKSLSLSPGK
notes: also called IgFD-33 (ProA)
B4: IgFD-32(anti-CD3/EGFR) (bispecific antibody, human IgG1, kappa, lambda)
chain 1: EVQLVESGGGLVQPGGSLRLSCAASGFTFNTYAMNWVRQAPGKGLEWVARIRSKYNNYATYYADSVKDRFTISRDDSKNTLYLQMNSLRAEDTAVYYCVRHGNFGNSYVSWFAYWGQGTLVTVSSASTKGPQVQLQESGPGLVKPSETLSLTCTVSGGSVSSGDYYWTWIRQSPGKGLEWIGHIYYSGNTNYNPSLKSRLTISIDTSKTQFSLKLSSVTAADTAIYYCVRDRVTGAFDIWGQGTMVTVSSASTKGPSVFPLAPSSKSTSGGTAALGCLVKDYFPEPVTVSWNSGALTSGVHTFPAVLQSSGLYSLSSVVTVPSSSLGTQTYICNVNHKPSNTKVDKKVEPKSCDKTHTCPPCPAPPVAGPSVFLFPPKPKDTLMISRTPEVTCVVVDVSHEDPEVKFNWYVDGVEVHNAKTKPREEQYNSTYRVVSVLTVLHQDWLNGKEYKCKVSNKGLPSSIEKTISKAKGQPREPQVYTLPPCRDELTKNQVSLWCLVKGFYPSDIAVEWESNGQPENNYKTTPPVLDSDGSFFLYSKLTVDKSRWQQGNVFSCSVMHEALHNHYTQKSLSLSPGK
chain 2: not shown
notes: (ProA)/(CH1) = purification resin; also called IgFD-32(ProA); IgFD-32(CH1)

Experiments:
EGFR on F98-EGFR cells [1] = molecular target: T1, EGFR on F98-EGFR cells (UniProt P00533 25-1210, limits assumed); assay: cell-based or functional assay
EGFR on F98-EGFR cells [2] = molecular target: T1, EGFR on F98-EGFR cells; assay: flow cytometry on F98-EGFR cells; protein purified on Protein A resin
[3] = molecular target: T2, CD3 on T cells (Jurkat T cells; PBMC-T cells); assay: flow cytometry on Jurkat T cells; protein purified on CH1 resin
T2 construct: whole, on cells; the target is inferred from the anti-CD3 arm of the constructs
T2 sequence (P07766 23-207): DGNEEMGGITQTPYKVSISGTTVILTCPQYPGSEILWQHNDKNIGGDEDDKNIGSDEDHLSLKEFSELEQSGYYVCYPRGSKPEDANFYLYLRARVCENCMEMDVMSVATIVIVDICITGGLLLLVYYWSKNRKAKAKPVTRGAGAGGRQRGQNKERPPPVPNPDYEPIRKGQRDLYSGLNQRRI

[4] = molecular target: T2, CD3 on T cells (Jurkat T cells; PBMC-T …); assay: flow cytometry on Jurkat T cells; protein purified on Protein A resin
EGFR on F98-EGFR cells [5] = molecular target: T1, EGFR on F98-EGFR cells; assay: flow cytometry on F98-EGFR cells; protein purified on CH1 resin
EGFR on F98-EGFR cells [6] = molecular target: T1, EGFR on F98-EGFR cells; assay: flow cytometry on F98-EGFR cells
Description: F98-EGFR cells (a DMEM containing 10% FBS, 200 μg/ml G418) were cultured. 2×10⁵ cells were washed by precooled PBS for 3 times, and blocked by 2% FBS (soluble to PBS). IgFD-8, IgFD-9, IgFD-10, IgFD-11, IgFD-18, IgFD-19, IgFD-25, IgFD-26 or IgFD-31 (aEGFR expressed in a laboratory as a control) was added and incubated for 2 h at 4° C. (cells were gently mixed during incubation), unbounded antibodies were washed by 2% FBS (soluble to PBS), and then the remaining cells were incubated by FITC anti-human IgGFc(KPL, Inc., MD) for 1 h at 4° C., and washed by 2% FBS (soluble to PBS) for flow cytometry analysis. As shown in FIG. 7 and Table 4, the anti-CD3/anti-EGFR heterodimers in different forms of fusion could bind to EGFR on F98-EGFR cells, and there was no significant difference in the binding capacity of different heterodimers to F98-EGFR.

Row | Binder | Promotion for the specific killing effect of PBMCs on target cells by heterodimers (EC50, pM); F98-EGFR cells, LDH assay; IgFD-28(CH1) (EGFR on F98-EGFR cells [1]) | Promotion for the specific killing effect of PBMCs on target cells by heterodimers (EC50, pM); F98-EGFR cells, LDH assay; IgFD-28(ProA) (EGFR on F98-EGFR cells [1]) | Kd (EGFR on F98-EGFR cells [2]) | Kd [3] | Kd [4] | Kd (EGFR on F98-EGFR cells [5]) | Promotion for the specific killing effect of PBMCs on target cells by heterodimers (EC50, pM); F98-EGFR cells, LDH assay; IgFD-29(CH1) (EGFR on F98-EGFR cells [1]) | Promotion for the specific killing effect of PBMCs on target cells by heterodimers (EC50, pM); F98-EGFR cells, LDH assay; IgFD-29(ProA) (EGFR on F98-EGFR cells [1]) | Kd (EGFR on F98-EGFR cells [6])
1 | B1 | 11.4 pM | 14.7 pM | 3.81 nM | 10.4 nM | 12.2 nM | 2.86 nM |  |  | 
2 | B2 |  |  | 77.5 nM | 6.82 nM | 7.42 nM | 78 nM | 338 pM | 293 pM | 
3 | B3 |  |  |  |  | 50.7 nM |  |  |  | 2.42 nM
4 | B4 |  |  | 19.6 nM | 8.45 nM | 7.13 nM | 12.8 nM |  |  | 
